Reference: the supplement of paper PMC9112550, “Optimization of the antimicrobial peptide Bac7 by deep mutational scanning” (BMC Biology, 2022)

tested on: Escherichia coli TOP10; experiment: shrunken log2 fold change of peptide-encoding DNA abundance (4.5 h post-induction vs induction); higher = less antimicrobial activity (less host growth inhibition); settings: time post-induction: 4.5 h; library: site-saturation at positions 5, 18, 19, 20
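Further: peptides expressed intracellularly from a pBAD plasmid library in pooled LB shake-flask culture, induced with 0.3% L-arabinose, DNA abundance read by NGS, three biological replicates, DESeq2 with apeglm shrinkage.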

| Sequence | shrunken log2 fold change |
| --- | --- |
| RRIRDRPPRLPRPRPRPKNFPRP | -0.174 |
| RRIRERPPRLPRPRPRPDRPPRP | -0.165 |
| RRIRARPPRLPRPRPRPNSWPRP | 0.422 |
| RRIRQRPPRLPRPRPRPGPYPRP | -0.0528 |
| RRIRGRPPRLPRPRPRPDGAPRP | 1.03 |
| RRIRMRPPRLPRPRPRPHRKPRP | 0.0879 |
| RRIRKRPPRLPRPRPRPFHHPRP | -0.131 |
| RRIRGRPPRLPRPRPRPETWPRP | 1.28 |
| RRIRARPPRLPRPRPRPGSVPRP | 0.301 |
| RRIRDRPPRLPRPRPRPWWIPRP | -0.0075 |
| RRIRDRPPRLPRPRPRPTNSPRP | 0.115 |
| RRIRGRPPRLPRPRPRPDGNPRP | 0.276 |
| RRIRQRPPRLPRPRPRPMQCPRP | -0.409 |
| RRIRPRPPRLPRPRPRPSCAPRP | 0.0332 |
| RRIRHRPPRLPRPRPRPTSFPRP | 0.0399 |
| RRIRIRPPRLPRPRPRPIDPPRP | -0.142 |
| RRIRQRPPRLPRPRPRPNHMPRP | -0.422 |
| RRIRFRPPRLPRPRPRPPPEPRP | 1.28 |
| RRIRPRPPRLPRPRPRPVSWPRP | 0.704 |
| RRIRMRPPRLPRPRPRPGDYPRP | 0.0762 |
| RRIRARPPRLPRPRPRPKDCPRP | 0.181 |
| RRIRFRPPRLPRPRPRPCDVPRP | 0.0119 |
| RRIRFRPPRLPRPRPRPTCVPRP | -0.0732 |
| RRIRTRPPRLPRPRPRPCWAPRP | -0.0904 |
| RRIRVRPPRLPRPRPRPFKGPRP | -0.0313 |

| Sequence | shrunken log2 fold change |
| --- | --- |
| RRIRCRPPRLPRPRPRPYRRPRP | -0.344 |
| RRIRKRPPRLPRPRPRPVPEPRP | 0.151 |
| RRIRLRPPRLPRPRPRPFIGPRP | -0.305 |
| RRIRCRPPRLPRPRPRPPCGPRP | 0.142 |
| RRIRRRPPRLPRPRPRPPNYPRP | 0.0616 |
| RRIRFRPPRLPRPRPRPLRNPRP | 0.514 |
| RRIRLRPPRLPRPRPRPQMLPRP | 0.0385 |
| RRIRDRPPRLPRPRPRPGFNPRP | 0.125 |
| RRIRVRPPRLPRPRPRPTNCPRP | -0.075 |
| RRIRARPPRLPRPRPRPDSLPRP | 0.0733 |
| RRIRQRPPRLPRPRPRPVQTPRP | -0.0915 |
| RRIRQRPPRLPRPRPRPVFSPRP | -0.192 |
| RRIRARPPRLPRPRPRPVPVPRP | 0.423 |
| RRIRRRPPRLPRPRPRPDNAPRP | -0.227 |
| RRIRWRPPRLPRPRPRPQTHPRP | 1 |
| RRIRARPPRLPRPRPRPLCIPRP | -0.143 |
| RRIRWRPPRLPRPRPRPTIFPRP | 0.0443 |
| RRIRVRPPRLPRPRPRPYKKPRP | 0.0251 |
| RRIRNRPPRLPRPRPRPVPCPRP | -0.237 |
| RRIRMRPPRLPRPRPRPNHTPRP | -0.213 |
| RRIRFRPPRLPRPRPRPANIPRP | -0.0774 |
| RRIRWRPPRLPRPRPRPMKHPRP | -0.0254 |
| RRIRQRPPRLPRPRPRPIEFPRP | -1.79 |
| RRIRKRPPRLPRPRPRPWRDPRP | 0.188 |
| RRIRGRPPRLPRPRPRPYIFPRP | -0.135 |

| Sequence | shrunken log2 fold change |
| --- | --- |
| RRIRARPPRLPRPRPRPTRGPRP | 0.301 |
| RRIRSRPPRLPRPRPRPPINPRP | -0.32 |
| RRIRTRPPRLPRPRPRPYWVPRP | -0.0888 |
| RRIRCRPPRLPRPRPRPQQTPRP | -0.00158 |
| RRIRFRPPRLPRPRPRPDGAPRP | -0.0432 |
| RRIRERPPRLPRPRPRPVNCPRP | -0.315 |
| RRIRNRPPRLPRPRPRPGCYPRP | -0.24 |
| RRIRPRPPRLPRPRPRPRVNPRP | -0.194 |
| RRIRRRPPRLPRPRPRPTANPRP | 0.589 |
| RRIRMRPPRLPRPRPRPHQDPRP | -0.117 |
| RRIRMRPPRLPRPRPRPETRPRP | 0.925 |
| RRIRMRPPRLPRPRPRPGESPRP | 1.29 |
| RRIRYRPPRLPRPRPRPPGTPRP | -0.146 |
| RRIRNRPPRLPRPRPRPEHWPRP | -0.0343 |
| RRIRWRPPRLPRPRPRPNQNPRP | -0.221 |
| RRIRGRPPRLPRPRPRPGQEPRP | 0.974 |
| RRIRIRPPRLPRPRPRPLGRPRP | 0.39 |
| RRIRSRPPRLPRPRPRPVACPRP | 0.271 |
| RRIRTRPPRLPRPRPRPEASPRP | 0.00709 |
| RRIRLRPPRLPRPRPRPMGIPRP | 0.0924 |
| RRIRARPPRLPRPRPRPRDDPRP | 0.647 |
| RRIRKRPPRLPRPRPRPTWFPRP | 0.203 |
| RRIRRRPPRLPRPRPRPCESPRP | 0.0471 |
| RRIRNRPPRLPRPRPRPCNVPRP | -0.00963 |
| RRIRQRPPRLPRPRPRPQKVPRP | -0.0255 |

| Sequence | shrunken log2 fold change |
| --- | --- |
| RRIRPRPPRLPRPRPRPEEDPRP | 0.192 |
| RRIRLRPPRLPRPRPRPGRIPRP | -0.136 |
| RRIRVRPPRLPRPRPRPYYEPRP | -0.632 |
| RRIRCRPPRLPRPRPRPWHWPRP | 0.0135 |
| RRIRTRPPRLPRPRPRPWSKPRP | -0.0826 |
| RRIRCRPPRLPRPRPRPLTDPRP | -0.285 |
| RRIRFRPPRLPRPRPRPNKSPRP | -0.67 |
| RRIRRRPPRLPRPRPRPDIVPRP | 0.17 |
| RRIRIRPPRLPRPRPRPTQIPRP | 0.245 |
| RRIRLRPPRLPRPRPRPHLEPRP | 0.0765 |
| RRIRARPPRLPRPRPRPNREPRP | 0.226 |
| RRIRLRPPRLPRPRPRPSPSPRP | -0.218 |
| RRIRKRPPRLPRPRPRPCYTPRP | -0.0178 |
| RRIRIRPPRLPRPRPRPITCPRP | -0.378 |
| RRIRQRPPRLPRPRPRPQGMPRP | 0.0331 |
| RRIRMRPPRLPRPRPRPRLSPRP | 0.494 |
| RRIRLRPPRLPRPRPRPKMGPRP | 0.0108 |
| RRIRCRPPRLPRPRPRPSEGPRP | 0.141 |
| RRIRFRPPRLPRPRPRPKKVPRP | 0.102 |
| RRIRERPPRLPRPRPRPVACPRP | -0.0696 |
| RRIRERPPRLPRPRPRPYVPPRP | -0.0961 |
| RRIRWRPPRLPRPRPRPWCPPRP | 0.0505 |
| RRIRYRPPRLPRPRPRPPKQPRP | -0.0678 |
| RRIRARPPRLPRPRPRPGDSPRP | 0.339 |
| RRIRMRPPRLPRPRPRPELSPRP | 0.0644 |

| Sequence | shrunken log2 fold change |
| --- | --- |
| RRIRMRPPRLPRPRPRPLWFPRP | -0.147 |
| RRIRDRPPRLPRPRPRPLLYPRP | 0.116 |
| RRIRKRPPRLPRPRPRPMQDPRP | -0.0916 |
| RRIRTRPPRLPRPRPRPQMFPRP | 0.0287 |
| RRIRGRPPRLPRPRPRPDDCPRP | 0.152 |
| RRIRCRPPRLPRPRPRPWATPRP | 0.00822 |
| RRIRWRPPRLPRPRPRPPHNPRP | 0.527 |
| RRIRARPPRLPRPRPRPCLDPRP | 0.313 |
| RRIRLRPPRLPRPRPRPVNIPRP | -0.163 |
| RRIRLRPPRLPRPRPRPSSEPRP | 0.0265 |
| RRIRRRPPRLPRPRPRPVVNPRP | 0.61 |
| RRIRPRPPRLPRPRPRPIDPPRP | -0.172 |
| RRIRDRPPRLPRPRPRPTDYPRP | -0.0921 |
| RRIRMRPPRLPRPRPRPPPNPRP | 1.77 |
| RRIRDRPPRLPRPRPRPFHEPRP | -0.048 |
| RRIRLRPPRLPRPRPRPFSWPRP | -0.213 |
| RRIRSRPPRLPRPRPRPWVYPRP | -0.14 |
| RRIRQRPPRLPRPRPRPIHKPRP | -0.651 |
| RRIRGRPPRLPRPRPRPSMHPRP | 0.421 |
| RRIRHRPPRLPRPRPRPYFTPRP | -0.679 |
| RRIRSRPPRLPRPRPRPIGFPRP | -0.0486 |
| RRIRPRPPRLPRPRPRPRTWPRP | 0.537 |
| RRIRFRPPRLPRPRPRPQICPRP | -0.135 |
| RRIRCRPPRLPRPRPRPKYEPRP | -0.403 |
| RRIRFRPPRLPRPRPRPVVNPRP | -0.026 |

| Sequence | shrunken log2 fold change |
| --- | --- |
| RRIRQRPPRLPRPRPRPDCQPRP | -0.0643 |
| RRIRVRPPRLPRPRPRPAIHPRP | -0.23 |
| RRIRPRPPRLPRPRPRPLWLPRP | -0.0275 |
| RRIRQRPPRLPRPRPRPEFAPRP | 0.482 |
| RRIRGRPPRLPRPRPRPEYSPRP | 0.445 |
| RRIRCRPPRLPRPRPRPIDFPRP | -0.458 |
| RRIRARPPRLPRPRPRPMQWPRP | 0.442 |
| RRIRMRPPRLPRPRPRPPGTPRP | 1.05 |
| RRIRTRPPRLPRPRPRPYMLPRP | -1.13 |
| RRIRYRPPRLPRPRPRPLMVPRP | -0.439 |
| RRIRKRPPRLPRPRPRPAWLPRP | 0.564 |
| RRIRNRPPRLPRPRPRPLLWPRP | 0.369 |
| RRIRIRPPRLPRPRPRPLLTPRP | -0.156 |
| RRIRYRPPRLPRPRPRPPQHPRP | -0.171 |
| RRIRFRPPRLPRPRPRPMWIPRP | -0.106 |
| RRIRARPPRLPRPRPRPQVIPRP | -0.109 |
| RRIRWRPPRLPRPRPRPAFTPRP | 0.0598 |
| RRIRLRPPRLPRPRPRPLWCPRP | 0.159 |
| RRIRLRPPRLPRPRPRPDPAPRP | 0.752 |
| RRIRLRPPRLPRPRPRPPIHPRP | -0.117 |
| RRIRGRPPRLPRPRPRPEIRPRP | 0.122 |
| RRIRNRPPRLPRPRPRPKYFPRP | -0.0727 |
| RRIRSRPPRLPRPRPRPGFCPRP | 0.108 |
| RRIRMRPPRLPRPRPRPVHVPRP | -0.0337 |
| RRIRIRPPRLPRPRPRPMRNPRP | 0.167 |
